T1: bacterial ribosomal protein bS1, M. smegmatis (M. smegmatis, UniProt A0QYY6 1-479)
T1 construct: ribosomal protein bS1 of M. smegmatis; only the two N-terminal domains OB1 and OB2 are visible in the map, the rest is disordered; Stood in the assay as a part of the 70S ribosome; the model was begun from AlphaFold2 and docked in the map; also called bS1 r-protein; source: endogenous, in ribosomes purified from M. smegmatis MC2 155
T1 sequence (looked up): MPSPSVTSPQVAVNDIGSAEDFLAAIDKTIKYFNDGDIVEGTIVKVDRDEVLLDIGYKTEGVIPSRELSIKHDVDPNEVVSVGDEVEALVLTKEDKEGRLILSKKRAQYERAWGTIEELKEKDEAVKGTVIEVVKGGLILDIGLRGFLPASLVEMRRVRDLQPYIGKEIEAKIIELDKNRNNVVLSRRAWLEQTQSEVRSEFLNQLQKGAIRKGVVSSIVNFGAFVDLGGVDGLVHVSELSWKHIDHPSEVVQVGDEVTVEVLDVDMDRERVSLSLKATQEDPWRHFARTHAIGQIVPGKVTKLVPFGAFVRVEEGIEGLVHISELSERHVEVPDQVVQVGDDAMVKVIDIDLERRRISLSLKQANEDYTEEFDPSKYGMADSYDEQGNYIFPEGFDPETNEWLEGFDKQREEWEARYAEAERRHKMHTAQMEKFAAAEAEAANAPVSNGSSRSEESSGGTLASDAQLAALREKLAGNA

B1: ribosomal protein uS2, M. smegmatis (natural protein, UniProt A0QVB8 1-277, looked up)
chain: MAVVTMKQLLDSGAHFGHQTRRWNPKMKRFIFTDRNGIYIIDLQQTLTYIDKAYEFVKETVAHGGTVLFVGTKKQAQESIAEEATRVGMPYVNQRWLGGMLTNFSTVHKRLQRLKELEAMEQTGGFEGRTKKEILMLTREKNKLERSLGGIRDMQKVPSAVWVVDTNKEHIAVGEARKLGIPVIAILDTNCDPDVVDYPIPGNDDAIRSAALLTKVIASAVAEGLQARAGQGSGEKPAEGAEPLAEWEQELLAGATAGAADASAEGAAAPESSTDAS
notes: ribosomal protein uS2 of M. smegmatis; Stood in the assay as a part of the 70S ribosome; also called uS2 r-protein; source: endogenous, in ribosomes purified from M. smegmatis MC2 155
B2: RafH (ribosome associated factor under hypoxia), M. smegmatis (natural protein, UniProt A0QZ86 1-258, looked up)
chain: MDVDVSTDGELPGAAEYAREKIGRLSRRAHRPVLHARVRLTRHGDPAVERPVIAQANLDVNGRQVRAQVEGVNAREAVDRLEARLRSRLERIAEHWEARRGGVPAEAGREWRHESEPARRPGYFPRPPEERRIIRRKSFSMVPCTVDEAALEMEMLDYDFHLFTEKGTGFAAVLYKGGPTGYRLVLVIPVPADELSPFEKPITISTHPAPCLTQRDAVERLGLLGLPFLFYIDAAEGRASVIYRRYDGHYGLITPADG
notes: RafH of M. smegmatis, gene MSMEG_3935, 258 amino acid residues (~30 kDa): NTD 1-100, linker 101-130, CTD 131-258; gene synthesised (GenScript) and cloned in pET-28a(+); the methods say only that the gene MSMEG_3935 was cloned; also called MSMEG_3935; source: E. coli C41(DE3), purified (Ni-NTA, size-exclusion chromatography)
B3: ribosomal protein uS11, M. smegmatis (natural protein)
chain: not shown
notes: ribosomal protein uS11 of M. smegmatis; Stood in the assay as a part of the 70S ribosome; also called uS11 r-protein; source: endogenous, in ribosomes purified from M. smegmatis MC2 155
B4: ribosomal protein uS9, M. smegmatis (natural protein, UniProt A0QSP9 1-150, looked up)
chain: MTDVTETEVVTESAEPREPVIIDRPIQTVGRRKEAVVRVRLVPGTGQFNLDGRTLENYFPNKVHQQLIKAPLVTVDRVDQFDIYAHLDGGGPSGQAGALRLAIARALILVQPEDRPALKKAGFLTRDPRAIERKKYGLKKARKAPQYSKR
notes: ribosomal protein uS9 of M. smegmatis; C-terminal residue R150; Stood in the assay as a part of the 70S ribosome; also called r-protein uS9; source: endogenous, in ribosomes purified from M. smegmatis MC2 155

How the values were obtained:
[1] = biological target: T1, bacterial ribosomal protein bS1, M. …; assay: cryo-EM structure; single particle cryo-EM of the in-vitro reconstituted 70S ribosome RafH complex (Titan Krios 300 kV, Falcon 3, Relion 3.1.4); overall 2.8 Å; maps with bS1 or E-site tRNA low pass filtered to 3.5 Å; conditions: both partners purified
[2] = biological target: B2; assay: as above; conditions: both partners purified

Row | binding result [1] | binding result [2] | Binder
1 | binds |  | B1
2 | binds |  | B2
3 |  | binds | B3
4 |  | binds | B4
